Laboratory results published in US12404493B2, “Methods for the re-derivation of diverse pluripotent stem cell-derived brown fat cells” (AgeX Therapeutics, Inc., priority 2015, dated 2025).

System: hES cell-derived clonal embryonic progenitor cell lines
Test: Differentiation of clonal embryonic progenitor cell lines into BAT cells in HyStem beads, marker expression by Illumina microarray / qPCR
Assay type: cell-based, human
Details: 10 ng/mL BMP4 or 100 ng/mL BMP7 added to rosiglitazone/T3/CL-316,243 differentiation in HyStem beads
Description: Then, HyStem (1 ml, 1% w/v) is mixed with Gelin-S (1 ml, 1% w/v) immediately before use. […] Following complete gelation (20 min), Differentiation Medium is added to each well. […] Plates were then placed in a humidified incubator at 37° C. with ambient O2 and 10% CO2, and the cells were fed three-times weekly.
Total RNA was extracted directly from cells growing in 6-well plates or 10 cm tissue culture dishes using Qiagen RNeasy mini kits according to the manufacturer's instructions. RNA concentrations were measured using a Beckman DU530 or Nanodrop spectrophotometer and RNA quality was determined by denaturing agarose gel electrophoresis or using an Agilent 2100 bioanalyzer. […] Values of less than 120 relative fluorescence units (RFUs) were considered as nonspecific background signal.

Molecule	cell viability
BMP4: Bone Morphogenetic Protein 4, member of the TGFβ superfamily (protein, UniProt P12644 293-408, looked up) Bone morphogenetic protein 4: SPKHHSQRARKKNKNCRRHSLYVDFSDVGWNDWIVAPPGYQAFYCHGDCPFPLADHLNSTNHAIVQTLVNSVNSSIPKACCVPTELSAISMLYLDEYDKVVLKNYQEMVVEGCGCR	greater levels of cell viability
BMP7: Bone Morphogenetic Protein 7, member of the TGFβ superfamily (protein, UniProt P18075 293-431, looked up) Bone morphogenetic protein 7: STGSKQRSQNRSKTPKNQEALRMANVAENSSSDQRQACKKHELYVSFRDLGWQDWIIAPEGYAAYYCEGECAFPLNSYMNATNHAIVQTLVHFINPETVPKPCCAPTQLNAISVLYFDDSSNVILKKYRNMVVRACGCH	greater levels of cell viability
